Measured values as given in the nanobody polyreactivity screen of Harvey et al. (2022).

Experiment: yeast display, Sf9 membrane polyspecificity reagent, FACS + sequencing; frameworks hold sequencing errors
Outline: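 Using colony PCR, genes from sorted yeast display clones were amplified, then sequenced on MiSeq at 2 × 250 and filtered by CDR length. The clones had been stained with 10% biotinylated, detergent-solubilized Sf9 membrane reagent for 1 hour at 4 °C and sorted by FACS into low and high (top ~1%) gates on anti-HA and streptavidin fluorescence. Polyreactivity labels come from the gate of origin.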

Sequence | polyreactivity (PSR sort gate)
QVQLVESGGGLVQAGGSLRLSCAASGRIFLYYAMGWYRQAPGKERELVAGISTGGSTNYADSVKGRFTISRDNAKNTVYLQMNSLKPEDTAVYYCAVVDVEEHVGHWGQGTQVTVSS | low polyreactivity
QVQLVESGGGLVQAGGSLRLSCAASGSIFSPYAMGWYRQAPGKERELVAAITNSGGRTYYADSVKGRFTISRDNAKNTVYLQMNSLKPEDTAVYYCNADYGKHHTDYYYWGQGTQVTVSS | low polyreactivity
QVQLVESGGGLVQAGGSLRLSCAASGRTFYYNTMGWYRQAPGKERELVAALSSRGGTTSYADSVKGRFTISRDNAKNSVYLQMNSLKPEDTAVYYCNAETYRRGSYDYWGQGTQVTVSS | high polyreactivity
QVQLVESGGGLVQAGGSLRLSCAASGIIFIGNAMGWYRQAPGKERELVAAIRSGTGTNYADSVKGRFTISRDNAKNTVYLQMNSLKPEDTAVYYSNADYNSGTYTQGTHEGDYWGQGTQVTVSS | low polyreactivity
QVQLVESGGGLVQAGGSLRLSCAASGIIFGVYAMGWYREAPGKERELVAAISRSGDSTYYADSVKGRFTISRDNAKNTVYLQMNSLKPEDTAVYYCAAEWYFTFDYWGQGTQVTVSS | low polyreactivity
QVQLVESGGGLVQAGGSLRLSCAASGSIFVRNVMGWYRQPPGKERELVATIRYRGGSTYYADSVKGRFTISRDYAKNTVYLQMNSLKPEDTAVYYCNARYLWADEYYYWGQGTQVTVSS | low polyreactivity
QVQLVESGGGLVQAGGSLRLSGAAWSIFYLNAMGWYRKAPGKERELVAAISSAGSTYYADSVKGRFTISRDNAKNTVYLQMNSLKPEDTAVYYCAAYWYDSPGVTEIWYDYWGQGTQVTVSS | low polyreactivity
QVQLVESGGGLVQAGGSLRLSCAASGRIFPWYAMGWYRQAPGKERELVATISSSGRTNYADSVKGRFTISRDNAKNTVYLQLNSLQPEDTAVYFCAATLYHYWYADFDYWGQGTQVTVSS | high polyreactivity
QVQLVESGGGLVQAGGSLRLSCAASGSIFVGNTMGWYRQAPGKERELVAALTWSGGRTYYADSVKGRFTISRDNEKNTVYLQMHSLKPEDTAVYYCNALANYIRYYYWGQGTQVTVSS | high polyreactivity
QVQLVESGGGLVQAGGSLRLSCAASGLNFARNAMGWYRQAPGKERELVAAISSSGNTYADSVKGRFTISRDNAKNTVYLQMNSLKPEDTAVYYCAADYVRWGQRKRSRYYYWGQGTQVTVSS | high polyreactivity
QVQLVESGGGLVQAGGSLRLSCAASGFTFFSNAMGWYRQAPGKERELVAAITSSGGSTYADSVKGRFTISRDNAKNTVYLQMNSLKPEDTAVYYCAADAQAPPGGFKEYDYWGQGTQVTVSS | low polyreactivity
QVHLVESGGGLVQAGGSLRLSCAASGFTFPLYARGLYRQAPGKERELVAVINSDGGRTYYADSVKGRFTISRDNAKYTVYLQMNSLKPEDTAVYYCATRATWYYWGQGTQVTVSS | high polyreactivity
QVQLVESGGGLVQAGGSLRLSCAASGYTFVLYAMGWYRQAPGKERELVAAIRWSGGTTYYADSVKGRFTISRDNAKNTVYCQMNSLKPEDTAVYYCAGWDYTGNVVTGDYWGQCTQVTVSS | high polyreactivity
QVQLVESGGGLVQAGGSLRLSCAASGIIFRYYAMGWYRQAPGKERELVAAISWSTDSTYYADSVKGRFTISRDNAKNTVYLPMNSLKPEDTAVYYCNARPSYYRISPYDYWGQGTQVTVSS | high polyreactivity
QVQLVESGGGLVQAGGSLRLSCADSGSTFPGYTMGWYRQAPGKERELVAAIDGSAGDTYYADSVKGRVTISRDNAKNTVYLQMNSLKPEDTEVYYCAADGPYDYSPWLMYYWGQGTQVTVSS | low polyreactivity
QVQLVESGGGLVQAGGSLRLSCAASGITFGYYAMGWYRQAPGKERELVAAINWSGGSTYYADSVKGRFTISRDNAKNTVYLQMNSLKPEDTAVYYCNARPFNRYYREYDYWGQGTQVTVSS | high polyreactivity
QVQLVESGGGLVQAGGSLRLSCAASGFTFRPYAMGWYRQAPGKERELVAAISTSGATTYYADSVKGRFTISRDNAKITVYLQMNSLKPEDTAVYYCNKVYWHHPWEYGYWGQGTQVTVSS | high polyreactivity
QVQLVESGGGLVQAGGSLRLSCAASGFIFGTYVMGWYRQAPGKERELVAAISESGGRTYYADSVKGRFTISRDNAKNTVYLQMNSLKPEDTAVYYCAKVRHIRFHYYYGYQSYYYWGQGTQVTVSS | high polyreactivity
QVQLVESGGGLVQAGGSLRLSCAASGRTFSWNAMGWYRQAPGKERELVAAINRSGGITFYADSVKGRFTISRDNAKNTVYLHMNSLKPEDTAVYYSAADRSFGHHYWYSGKRYDYWGQGTQVTVSS | low polyreactivity
QVQLVESGGGLVQAGGSLRLSCAASGRTLSLYAMGWYRQAPGKEMELVANISNSGGSTDYADSVKGRFTISRDNAKNTVYLQMNSLKPEDTAVYYCAADANSWFTSYQVYGSEFDYWGQGTQVTVSS | low polyreactivity
QVQLVESGGGLVQAGGSLRLSCAASGRIFTHNAMGWYRQAHGKERELVAAISFSGVSTYYADSVKGRFTISRDNAKNTVYLQMNSLKPEDTAVYYCARRYWYPDAFYRYDYWGQGTQVTVSS | low polyreactivity
QLQHEESRGGLVQAGGSLRLSCAASGFIFPAYVMGWYRQAPGKERELVSAIDWSGDNTYYADSVKGRFTISRDNAKNTVYLQMNSLTPEDTAVYYCAKDNDYPTEWLSDYYYWGQGTQVTVSS | low polyreactivity
QVQLVESGGGLVQAGGSLRLSCAASGSIFLAYAMGWDRQAPGKEREFVAAITWSGDSTYYADSVKGRFTISRDNAKNTVYLQMNSLKPEDTAVYYCAADYFGGPSYEFDYWGQGTQVTVSS | low polyreactivity
QVQLHESVGGLVQAGVSLRLSCEASGTNFTARFIGWYRQAPGKERELVATITDGCYTNHADSVNGRFTISRDNAKNTVYLTMNSLKPEVAAVYYCAAGDVDNDTLMYWGQGSQVTVSS | low polyreactivity
QVQLVESGGVLVQAGGIIRLSCAASGFIFVRYAMGWYRQAPGTERELVASIRSVGRTNYADSVKGRFTISRDNAKNTVYLQMNSLKPEDTAVYYCAAGYGSRSRPRGGYWGQGTQVTVSS | high polyreactivity
QVQLVESGGGLVQAGGSLRLICAASGSIFFWYTMGWYRQAPGKERELVATITGSGSSTTYADSVKGRFTISRDNAKYTVYLQMNSLKPEDTAVYYCAAADIIDHSFPYDYWGQGTQVTVSS | low polyreactivity
QVQLVESGGCLVQAGGSLRLSCAASGRIFGVYAMGWYRQAPGKERELVAAISEGGGSTNYADSVKGRFTISRDNANNTVYLQMNSLKPEDTAVYYCAATSRTGVRRYYSWGQGTQVTVSS | low polyreactivity
QVQLVESGGGLVQAGGSLRLSCAASGRIFYYYAMGWYRQAPGKERELVAAITSGGRTYYADSVKGRFTISRDNAKNTVYLQMNSLKPEDTAVYYCAADRTYTYLGPGYEYWGQGTQVTVSS | low polyreactivity
QVQLEESGGGLVQAGGSLRLSCAASGFTFWRYGMGWYRQAPRKERELVASITSGGGTNYADSVKGRFTISRDNAKNTVYIQMNSLKPEDTAVYYCNAVFFYHGTKPAFISHDYWGQGTQVTVSS | low polyreactivity
QVQLVESGGGIVQAGGSLRLSCAASGRTFSWNTMGWYRQAPGKERELVAAITRVGTTYYADSVKGRFTISRDNAKNTVYLQMNSLKPEDTAVYYCAVKGPRWAYPGVDYWGQGTQVTVSS | high polyreactivity
